{"source": "patent US6372898", "about": "(SCHERING, dated 2002)", "key": {"[1]": {"system": "T1, cytokine receptor common gamma chain (γc), wild type", "T1 sequence": "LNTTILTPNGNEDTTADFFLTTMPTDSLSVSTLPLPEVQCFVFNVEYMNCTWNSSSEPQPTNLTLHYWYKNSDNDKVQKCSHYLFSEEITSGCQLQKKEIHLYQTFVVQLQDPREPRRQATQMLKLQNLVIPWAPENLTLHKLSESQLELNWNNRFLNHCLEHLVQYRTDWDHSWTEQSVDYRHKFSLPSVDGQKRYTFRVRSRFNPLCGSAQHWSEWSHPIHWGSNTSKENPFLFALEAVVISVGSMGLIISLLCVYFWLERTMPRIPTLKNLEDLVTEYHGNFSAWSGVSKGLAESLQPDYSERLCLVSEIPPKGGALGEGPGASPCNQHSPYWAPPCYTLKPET"}, "[2]": {"target": "T2, cytokine receptor common gamma chain (γc), wild type", "T2 chain": "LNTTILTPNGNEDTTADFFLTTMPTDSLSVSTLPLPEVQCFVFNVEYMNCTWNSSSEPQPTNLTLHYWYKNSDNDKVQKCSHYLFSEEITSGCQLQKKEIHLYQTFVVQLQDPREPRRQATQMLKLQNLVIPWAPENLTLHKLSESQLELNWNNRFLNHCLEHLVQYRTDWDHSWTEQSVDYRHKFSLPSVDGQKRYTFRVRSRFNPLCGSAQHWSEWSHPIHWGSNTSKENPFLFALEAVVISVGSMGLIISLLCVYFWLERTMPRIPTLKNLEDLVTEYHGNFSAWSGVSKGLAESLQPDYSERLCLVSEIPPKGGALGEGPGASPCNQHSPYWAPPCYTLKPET"}, "[3]": {"target": "T3, cytokine receptor common gamma chain (γc), wild type (human, UniProt P31785 23-369)", "T3 construct": "also called WT γc; gc", "T3 sequence": "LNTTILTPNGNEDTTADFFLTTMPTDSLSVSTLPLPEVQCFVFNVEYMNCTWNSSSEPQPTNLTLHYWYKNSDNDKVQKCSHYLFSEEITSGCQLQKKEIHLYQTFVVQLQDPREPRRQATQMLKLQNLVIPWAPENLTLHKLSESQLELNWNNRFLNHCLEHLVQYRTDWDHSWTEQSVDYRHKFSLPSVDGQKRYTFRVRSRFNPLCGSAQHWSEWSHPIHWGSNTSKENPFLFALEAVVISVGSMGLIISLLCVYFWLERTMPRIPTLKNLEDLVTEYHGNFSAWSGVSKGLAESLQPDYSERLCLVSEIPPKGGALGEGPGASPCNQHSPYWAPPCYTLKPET", "assay": "co-immunoprecipitation (summary of the combined results)"}}, "note": "Where two headings read alike, the source gives them in different places."}
{"binder": "Jak3/Jak1 chimera J3 1-256 (enzyme, part only; not given: Jak1 C-terminal part and tag) chain, part: MAPPSEETPLIPQRSCSLLSTEAGALHVLLPARAPGPPQRLSFSFGDHLAEDLCVQAAKASGILPVYHSLFALATEDLSCWFPPSHIFSVEDASTQVLLYRIRFYFPNWFGLEKCHRFGLRKDLASAILDLPVLEHLFAQHRSDLVSGRLPVGLSLKEQGECLSLAVLDLARMAREQAQRPGELLKTVSYKACLPPSLRDLIQGLSFVTRRAIRRTVRRALPRVAACQADRHSLMAKYIMDLERLDPAGAAETFHV", "values": [{"measurement": "IL-2 induced tyrosine phosphorylation of STAT5b in IL-2R+ fibroblasts", "setting": "[1]", "value": "the J3 1-256 chimera (encoding both of the entire JH7/JH6 regions) responded to IL-2 stimulation by tyrosine phosphorylating STAT5b"}, {"measurement": "IL-2 induced tyrosine phosphorylation of the chimera in IL-2R+ fibroblasts", "setting": "[1]", "value": "The smallest region of a chimeric Jak3/Jak1 which reconstituted IL-2-induced tyrosine phosphorylation was a region that contained both of the entire JH7 and JH6 domains"}, {"measurement": "phosphorylation of IL-2Rβ after IL-2 in IL-2R+ fibroblasts", "setting": "[1]", "value": "it was only detected in cell lines that expressed Jak3/Jak1 chimeras having the entire JH7 and JH6 domains"}]}
{"binder": "wild-type Jak3 (protein) MAPPSEETPLIPQRSCSLLSTEAGALHVLLPARAPGPPQRLSFSFGDHLAEDLCVQAAKASGILPVYHSLFALATEDLSCWFPPSHIFSVEDASTQVLLYRIRFYFPNWFGLEKCHRFGLRKDLASAILDLPVLEHLFAQHRSDLVSGRLPVGLSLKEQGECLSLAVLDLARMAREQAQRPGELLKTVSYKACLPPSLRDLIQGLSFVTRRAIRRTVRRALPRVAACQADRHSLMAKYIMDLERLDPAGAAETFHVGLPGALGGHDGLGLLRVAGDGGIAWTQGEQEVLQPFCDFPEIVDISIKQAPRVGPAGEHRLVTVTRTDNQILEAEFPGLPEALSFVALVDGYFRLTTDSQHFFCKEVAPPRLLEEVAEQCHGPITLDFAINKLKTGGSRPGSYVLRRSPQDFDSFLLTVCVQNPLGPDYKGCLIRRSPTGTFLLVGLSRPHSSLRELLATCWDGGLHVDGVAVTLTSCCIPRPKEKSNLIVVQRGHSPPTSSLVQPQSQYQLSQMTFHKIPADSLEWHENLGHGSFTKIYRGCRHEVVDGEARKTEVLLKVMDAKHKNCMESFLEAASLMSQVSYRHLVLLHGVCMAGDSTMVQEFVHLGAIDMYLRKRGHLVPASWKLQVVKQLAYALNYLEDKGLPHGNVSARKVLLAREGADGSPPFIKLSDPGVSPAVLSLEMLTDRIPWVAPECLREAQTLSLEADKWGFGATVWEVFSGVTMPISALDPAKKLQFYEDRQQLPAPKWTELALLIQQCMAYEPVQRPSFRAVIRDLNSLISSDYELLSDPTPGALAPRDGLWNGAQLYACQDPTIFEERHLKYISQLGKGNFGSVELCRYDPLAHNTGALVAVKQLQHSGPDQQRDFQREIQILKALHSDFIVKYRGVSYGPGRPELRLVMEYLPSGCLRDFLQRHRARLDASRLLLYSSQICKGMEYLGSRRCVHRDLAARNILVESEAHVKIADFGLAKLLPLDKDYYVVREPGQSPIFWYAPESLSDNIFSRQSDVWSFGVVLYELFTYCDKSCSPSAEFLRMMGCERDVPALCRLLELLEEGQRLPAPPACPAEVHELMKLCWAPSPQDRPSFSALGPQLDMLWSGSRGCETHAFTAHPEGKHHSLSFS", "values": [{"measurement": "IL-2 induced tyrosine phosphorylation of Jak3 in IL-2R+ fibroblasts", "setting": "[2]", "value": "Jak3 was rapidly tyrosine phosphorylated and associated with the IL-2 receptor complex"}, {"measurement": "IL-2 induced tyrosine phosphorylation of STAT5b in IL-2R+ fibroblasts", "setting": "[2]", "value": "Cells expressing wild type Jak3 (WT) exhibited tyrosine phosphorylation of STAT5b"}]}
{"binder": "Jak3 I102A (enzyme, not shown: C-terminal FLAG or Myc tag joined through a ClaI site) MAPPSEETPLIPQRSCSLLSTEAGALHVLLPARAPGPPQRLSFSFGDHLAEDLCVQAAKASGILPVYHSLFALATEDLSCWFPPSHIFSVEDASTQVLLYRARFYFPNWFGLEKCHRFGLRKDLASAILDLPVLEHLFAQHRSDLVSGRLPVGLSLKEQGECLSLAVLDLARMAREQAQRPGELLKTVSYKACLPPSLRDLIQGLSFVTRRAIRRTVRRALPRVAACQADRHSLMAKYIMDLERLDPAGAAETFHVGLPGALGGHDGLGLLRVAGDGGIAWTQGEQEVLQPFCDFPEIVDISIKQAPRVGPAGEHRLVTVTRTDNQILEAEFPGLPEALSFVALVDGYFRLTTDSQHFFCKEVAPPRLLEEVAEQCHGPITLDFAINKLKTGGSRPGSYVLRRSPQDFDSFLLTVCVQNPLGPDYKGCLIRRSPTGTFLLVGLSRPHSSLRELLATCWDGGLHVDGVAVTLTSCCIPRPKEKSNLIVVQRGHSPPTSSLVQPQSQYQLSQMTFHKIPADSLEWHENLGHGSFTKIYRGCRHEVVDGEARKTEVLLKVMDAKHKNCMESFLEAASLMSQVSYRHLVLLHGVCMAGDSTMVQEFVHLGAIDMYLRKRGHLVPASWKLQVVKQLAYALNYLEDKGLPHGNVSARKVLLAREGADGSPPFIKLSDPGVSPAVLSLEMLTDRIPWVAPECLREAQTLSLEADKWGFGATVWEVFSGVTMPISALDPAKKLQFYEDRQQLPAPKWTELALLIQQCMAYEPVQRPSFRAVIRDLNSLISSDYELLSDPTPGALAPRDGLWNGAQLYACQDPTIFEERHLKYISQLGKGNFGSVELCRYDPLAHNTGALVAVKQLQHSGPDQQRDFQREIQILKALHSDFIVKYRGVSYGPGRPELRLVMEYLPSGCLRDFLQRHRARLDASRLLLYSSQICKGMEYLGSRRCVHRDLAARNILVESEAHVKIADFGLAKLLPLDKDYYVVREPGQSPIFWYAPESLSDNIFSRQSDVWSFGVVLYELFTYCDKSCSPSAEFLRMMGCERDVPALCRLLELLEEGQRLPAPPACPAEVHELMKLCWAPSPQDRPSFSALGPQLDMLWSGSRGCETHAFTAHPEGKHHSLSFS", "values": [{"measurement": "binding result", "setting": "[3]", "value": "no binding"}]}
{"binder": "Jak3 L98A (enzyme, also called Leucine 98A; not shown: C-terminal FLAG or Myc tag joined through a ClaI site) MAPPSEETPLIPQRSCSLLSTEAGALHVLLPARAPGPPQRLSFSFGDHLAEDLCVQAAKASGILPVYHSLFALATEDLSCWFPPSHIFSVEDASTQVALYRIRFYFPNWFGLEKCHRFGLRKDLASAILDLPVLEHLFAQHRSDLVSGRLPVGLSLKEQGECLSLAVLDLARMAREQAQRPGELLKTVSYKACLPPSLRDLIQGLSFVTRRAIRRTVRRALPRVAACQADRHSLMAKYIMDLERLDPAGAAETFHVGLPGALGGHDGLGLLRVAGDGGIAWTQGEQEVLQPFCDFPEIVDISIKQAPRVGPAGEHRLVTVTRTDNQILEAEFPGLPEALSFVALVDGYFRLTTDSQHFFCKEVAPPRLLEEVAEQCHGPITLDFAINKLKTGGSRPGSYVLRRSPQDFDSFLLTVCVQNPLGPDYKGCLIRRSPTGTFLLVGLSRPHSSLRELLATCWDGGLHVDGVAVTLTSCCIPRPKEKSNLIVVQRGHSPPTSSLVQPQSQYQLSQMTFHKIPADSLEWHENLGHGSFTKIYRGCRHEVVDGEARKTEVLLKVMDAKHKNCMESFLEAASLMSQVSYRHLVLLHGVCMAGDSTMVQEFVHLGAIDMYLRKRGHLVPASWKLQVVKQLAYALNYLEDKGLPHGNVSARKVLLAREGADGSPPFIKLSDPGVSPAVLSLEMLTDRIPWVAPECLREAQTLSLEADKWGFGATVWEVFSGVTMPISALDPAKKLQFYEDRQQLPAPKWTELALLIQQCMAYEPVQRPSFRAVIRDLNSLISSDYELLSDPTPGALAPRDGLWNGAQLYACQDPTIFEERHLKYISQLGKGNFGSVELCRYDPLAHNTGALVAVKQLQHSGPDQQRDFQREIQILKALHSDFIVKYRGVSYGPGRPELRLVMEYLPSGCLRDFLQRHRARLDASRLLLYSSQICKGMEYLGSRRCVHRDLAARNILVESEAHVKIADFGLAKLLPLDKDYYVVREPGQSPIFWYAPESLSDNIFSRQSDVWSFGVVLYELFTYCDKSCSPSAEFLRMMGCERDVPALCRLLELLEEGQRLPAPPACPAEVHELMKLCWAPSPQDRPSFSALGPQLDMLWSGSRGCETHAFTAHPEGKHHSLSFS", "values": [{"measurement": "binding result", "setting": "[3]", "value": "no binding"}]}
{"binder": "Jak3 Y100A mutant (enzyme, not shown: C-terminal FLAG or Myc tag joined through a ClaI site) MAPPSEETPLIPQRSCSLLSTEAGALHVLLPARAPGPPQRLSFSFGDHLAEDLCVQAAKASGILPVYHSLFALATEDLSCWFPPSHIFSVEDASTQVLLARIRFYFPNWFGLEKCHRFGLRKDLASAILDLPVLEHLFAQHRSDLVSGRLPVGLSLKEQGECLSLAVLDLARMAREQAQRPGELLKTVSYKACLPPSLRDLIQGLSFVTRRAIRRTVRRALPRVAACQADRHSLMAKYIMDLERLDPAGAAETFHVGLPGALGGHDGLGLLRVAGDGGIAWTQGEQEVLQPFCDFPEIVDISIKQAPRVGPAGEHRLVTVTRTDNQILEAEFPGLPEALSFVALVDGYFRLTTDSQHFFCKEVAPPRLLEEVAEQCHGPITLDFAINKLKTGGSRPGSYVLRRSPQDFDSFLLTVCVQNPLGPDYKGCLIRRSPTGTFLLVGLSRPHSSLRELLATCWDGGLHVDGVAVTLTSCCIPRPKEKSNLIVVQRGHSPPTSSLVQPQSQYQLSQMTFHKIPADSLEWHENLGHGSFTKIYRGCRHEVVDGEARKTEVLLKVMDAKHKNCMESFLEAASLMSQVSYRHLVLLHGVCMAGDSTMVQEFVHLGAIDMYLRKRGHLVPASWKLQVVKQLAYALNYLEDKGLPHGNVSARKVLLAREGADGSPPFIKLSDPGVSPAVLSLEMLTDRIPWVAPECLREAQTLSLEADKWGFGATVWEVFSGVTMPISALDPAKKLQFYEDRQQLPAPKWTELALLIQQCMAYEPVQRPSFRAVIRDLNSLISSDYELLSDPTPGALAPRDGLWNGAQLYACQDPTIFEERHLKYISQLGKGNFGSVELCRYDPLAHNTGALVAVKQLQHSGPDQQRDFQREIQILKALHSDFIVKYRGVSYGPGRPELRLVMEYLPSGCLRDFLQRHRARLDASRLLLYSSQICKGMEYLGSRRCVHRDLAARNILVESEAHVKIADFGLAKLLPLDKDYYVVREPGQSPIFWYAPESLSDNIFSRQSDVWSFGVVLYELFTYCDKSCSPSAEFLRMMGCERDVPALCRLLELLEEGQRLPAPPACPAEVHELMKLCWAPSPQDRPSFSALGPQLDMLWSGSRGCETHAFTAHPEGKHHSLSFS", "values": [{"measurement": "binding result", "setting": "[3]", "value": "no binding"}]}
{"binder": "Jak3/Jak1 chimera J3 1-130 (enzyme, part only; not given: Jak1 C-terminal part and tag) chain, part: MAPPSEETPLIPQRSCSLLSTEAGALHVLLPARAPGPPQRLSFSFGDHLAEDLCVQAAKASGILPVYHSLFALATEDLSCWFPPSHIFSVEDASTQVLLYRIRFYFPNWFGLEKCHRFGLRKDLASAILD", "values": [{"measurement": "IL-2 induced tyrosine phosphorylation of STAT5b in IL-2R+ fibroblasts", "setting": "[1]", "value": "cells expressing the J3 1-130 chimera also failed to demonstrate STAT5b phosphorylation"}]}
